For two molecules, Kd results are on record in PMC9467883, “Autoinhibition of the GEF activity of cytoskeletal regulatory protein Trio is disrupted in neurodevelopmental disorder-related genetic variants” (The Journal of Biological Chemistry, 2022).

In assay [1] the target is Human Rac1 (human, UniProt P63000 1-192). The assay is described as follows: BLI; ForteBio BLItz; His-GEF1 (0.5 uM) or SR6-GEF1 (2 uM) loaded on Ni-NTA biosensors; nucleotide-free Rac1 at 4-5 concentrations in assay buffer (20 mM Hepes pH 7.25, 150 mM KCl, 5% glycerol, 0.01% TritonX-100, 1 mM DTT); Kd = koff/kon from the linear fit of kobs against Rac1 concentration. The conditions noted are these: both partners purified. (In general: BLI is a label-free optical method that tracks binding on a fibre tip over time.)

For assay [2] the target is unchanged. Described as above. Particulars: both partners purified. The source holds these as a separate data set.

B1: Human Trio GEF1 (domain or fragment)
chain: not shown
modifications: His tag omitted (used for Ni-NTA immobilization). The GEF1 limits are not printed: the C-terminus 1599 comes from the printed SR6-GEF1 construct (788-1599), and the N-terminus about 1284 follows the …
What is called Kd is the equilibrium constant for the complex coming apart. The low end stands for tighter binding, the high end for weaker binding. In the case of B1, the Kd with Human Rac1 [1] turned out to be 151 nM.

B2: Human Trio SR6-GEF1 (domain or fragment)
chain: not shown
notes: Trio, human, spectrin repeats 6-9 appended to the GEF1 domain, 99 kDa; amino acids 788 to 1599 as stated for SR6-GEF1 in the modelling paragraph; Cloned into the pFastBac1 HTa vector; The limits 788-1599 are printed for the modelled SR6-GEF1, not in the cloning paragraph; also called His-SR6-GEF1; WT SR6-GEF1; source: Hi5 cells infected with baculovirus, purified (Ni-NTA, S200 Increase)
Regarding B2, in the assay with Human Rac1 [2], the affinity, expressed as Kd, was 316 nM.
